{
  "source": "the DeepSol protein solubility set",
  "data": [
    {"experiment": "soluble on expression in E. coli; label from the status in PepcDB or PDB records", "values": [
      {"sequence": "MARASGASDYRSGELSHQDERGAAHMVDITEKATTKRTAVAAGILRTSAQVVALISTGGLPKGDALATARVAGIMAAKRTSDLIPLCHQLALTGVDVDFTVGQLDIEITATVRSTDRTGVEMEALTAVSVAALTLYDMIKAVDPGALIDDIRVLHKEGGRRGTWTRR", "soluble on expression in E. coli": "soluble"},
      {"sequence": "DDDLEVKEENGVWVLNDGNFDNFVADKDTVLLEFYAPWCGHCKQFAPEYEKIASTLKDNDPPIAVAKIDATSASMLASKFDVSGYPTIKILKKGQAVDYDGSRTQEEIVAKVREVSQPDWTPPPEVT", "soluble on expression in E. coli": "soluble"},
      {"sequence": "MAYRERAAWAPEGYMLPLPGACLPSLPENLPGAPRPYRKGVSAGFVFRQGDACVPVVRGMGVVAAFGGEVVKVDPDFQELSEEAWQALLERVREGASPEEMDILRGLEVHVRHPDGRTTVYAHLQAPYPGLKVGSRVHRGDPIGYVGNTGLRGGASRLLFEVWEGEPDRSAFLFQGLEGEELLRRARAFFGLP", "soluble on expression in E. coli": "soluble"},
      {"sequence": "GSHMRLDKFIAQQLGVSRAIAGREIRGNRVTVDGEIVRNAAFKLLPEHDVAYDGNPLAQQHGPRYFMLNKPQGYVCSTDDPDHPTVLYFLDEPVAWKLHAAGRLDIDTTGLVLMTDDGQWSHRITSPRHHCEKTYLVTLESPVADDTAEQFAKGVQLHNEKDLTKPAVLEVITPTQVRLTISEGRYHQVKRMFAAVGNHVVELHRERIGGITLDADLAPGEYRPLTEEEIASVV", "soluble on expression in E. coli": "soluble"},
      {"sequence": "MQTKEKLASLSYLAVKSLLYELNLTPKPGLVDCHNNGAHNDMDFYTFLDSILSLSPFFKKYIEVGWLYHNESPQYLFNQLRKLGIEAEAAMFSATERVNTHKGINFSFALLLGATGSYLAKHIELIQEKRRFMPQDSLTICHLAGEMSMHLIQNDLSHVETKRNLTYGEKLFLQYGLKGLRGEASQGYPSLTQKALPFFRNELLKKQDIQISQLKLLLYLMTFIEDSNIIHRGGIKSWKKVQQEAQTLLEKDLPPYQLKEQLNSYNQILTDRHLSPGGAADLLSLTLYFSFLEQLI", "soluble on expression in E. coli": "not soluble"},
      {"sequence": "MGSDKIHHHHHHMSTDCLQELENALGRAALVRDEDRALYDVDWRGHLHGRSLAVVCPSRVEDVGETIRIARRHQISIVPQGGNTGLAGGATPDSTGRQLVLCTRRLNRIRGVDLLGNFITVDAGCILQNVQDAAQSHDRLFPLSLAAQGSCTIGGNLATNAGGNAVLRYGNMRELCVGIEAVDAQGRLIGDLKCVRKNNTGYSLRDLLIGSEGTLGIITGAALRLFPRPFAYATALVKCADIDHALQVLGILRAHCADFLSGVEWMSNGSLSNVSKQFLDTRIPPGFDESCLCLVELSGSTPPGLLDDILASALDQAITSGFAADAALASNLAERDAFWALRERLPLAEARCRSLKHDVSLPAGNMSEFVAHLEGYLSSMTLRCAWAGFGHLGDGNLHANVLIPDTMPDALCDCIDEFVYSEVLRLEGSISAEHGIGSRKNDLLHRALDVASLQAMQAVRNALDPHNLFNPGKLLFN", "soluble on expression in E. coli": "not soluble"},
      {"sequence": "MKISMEGSSVINLEQLSLYQDSLGYLGQQMNFPEKMTFHPKIFEETISKSHPGYEDLLAYREVMMNYTLSEIKAIYTDTFDFSKKHPLYMTFNKFDTQKERGQMLAKLKVLYEMFGLKMVDNELSDFLPLMLQFLQVADFKNDSRAQENLQLVIMIIEDGTYEMANTLAENNNPYAYVVSALRKTLKACIVPLKEVENHA", "soluble on expression in E. coli": "not soluble"},
      {"sequence": "MGSDKIHHHHHHMYKYKFTVFTPTYNRAHLLENLYNDLKAQTYDFNDFEWLIVDDGSSDSTKELVEKFISENKLNIRYIYKENGGKHTAINLGVKNADGELFFIVDSDDGLIKDSLEIANDEWDSLENKEGFSGVVGLCVYPSGDLIGTEMPEDKKICHFADLYFKYGVKGDKSIVFVTDELIKFPFPERKEVRFLPESVVWNEMSKYYKVICVNKPMIIRDYLDDGLTKNILSKNALRGRALEFLYLINQNTYPLSRYPYMWIKNYINLARYSLLSDSHYFGELRKVSDKLLYLALFPLGYYKYIGQRKLVSK", "soluble on expression in E. coli": "not soluble"},
      {"sequence": "MAHHHHHHMNGNHGEPGTERENRSSADEAPKGDAFFDPSAEQYLVISPRQKLNPVLKKINRVRYKFSNIIPDFLIGKNNACLFISMKYHRLRSNYLKARIETLSNKYSNRILLCLVDIENIENSLGEINQLAFCFNMTLILCWSTEECARVIEDFKIYEKKISYIRNNKLTSTHAEKIHELLKKIRCINSSDCATITNKFKSFKNIVTAKKDDLINCSGLGNKKIQALISAFNDPFF", "soluble on expression in E. coli": "soluble"},
      {"sequence": "MRPPRPPRPPSPQRSAELRRRFAQEARSERPDLATLCLLVGAEADGTLDEAGLDAAQVELDRLAGELPFRPGTPRAWAVALRDLLGERYGFHGVAADYQRLESSLLHEVVRRRRGLPILLSVVWLEVARRAGAPVYGVALPGHFVVGFGGESAAASGPGSAPLGERVLVDPYDGGRLLSGTDAEALVAGATGAELRASMLEPAAPLDVVARVLNNIRAWAAARPEQSAVGLWAVELALLLPAHAARLRYERAVLLVQRGEFAAGAGELEAYAEVVEAVDEAVAEEVRGEARTARAMLN", "soluble on expression in E. coli": "not soluble"},
      {"sequence": "MKPKAMIRTMAIMKTADILKAMDITEELAKRMGFLPRDCLFLRLATEEACTNAYEYCQKTRKLPFRIFWKMEARQFMIIVKQRGGCFSVAQTDVVNTGPRGRGLQLITHIVDDVYVKQAGNNVLFCMCKCKK", "soluble on expression in E. coli": "not soluble"},
      {"sequence": "MAHHHHHHMHQHGKTSGTDGSGATVSQSSSGFMETPWRIFEYGVASEQGSRKTMEDQHAMVAESFPFFAVYDGHGGTQCAEFLRDNLHTFIFGQPEIETDPERATRAGIAEAENAFLTKCADEKIESGSTCAVALVVDDTLIAGNVGDSEIVLCRAGAPIVLSTKHSIQDNVSEGERVKACGGRIISNRVGHPKFNPQLLSLAITRAIGDAGFKLREFTDGKPSGVIADAETRSTRLTDDDKFLIIGCDGLWDVMSYEAAVQLCSRLASEGETPKAIAGSLCQEALRQGSTDNVTCIYINIRAKSSAPGCGQLGSGDPLHNM", "soluble on expression in E. coli": "soluble"},
      {"sequence": "MRQCTPFDTLLVFYSTWPVLKNILTNKIMPAELESVRTRQIVALRTMINLNEPVVNSGVREPVWKVLVLDRTGQDIISPLLPVKQLRELGVTLHLLIGARREPLTDVPAVYFVSPNDENIDLMSEDLKKAMYDSFYCNFISPLARPRLESLASAAVHGGAVSQVQKVVDQYLNFISLEDDLFVLRRYSENSTFSYHAMNSPGTSDVAVNAMLDSIADGLFAVCATMGIVPIIRCPKGNAAEMVAKKLDQKLRDNLRDSRNNLFTMDGVRMGLLQTSRPLLVIGDRSADLATMLHHTWTYQALMHDVLELDQNRVTISTSSTGKKKDYDMATGGSDKLWNNHKGSAFPTVAEAVQENLDDYRSKEDDIKKIKQALGLSGESEAADEALTNVLADTTAKLGSTVMSLPDLLESKRLIDLHTNIATTLLDVIKERKLDVSLSSSKSCCNTHRLVDLFYQPVTQFLSNINHQEDVLRVLIIAFLCQETVNQNGYDQMMNLLRERGIEESALKHVQKLKSISQLGSRAANSAHTEEHQGAGTKTISMFGKLLSHSSKFVMEGVKNLVPKEHNLPLTKMIDSLNTPPSSTGISSAVGINQMIGGSSQGPDIDDIYCFFDPKLMHQPTKETILLARQQSAQDVILFVVGGGNYVEYQNLVDYGKRKNLMRVTYGCTELVNPAQFCDQVSCCSLSLPLTDLSGDSPYFFCSPLEF", "soluble on expression in E. coli": "not soluble"},
      {"sequence": "QTSGFSVTSGPMDVDVVTSIPFAMVDEINESSPAAEGGLQLGDQVLKFGNVEGGDNLLQRLAAEAQSNQGQAVSVQVMRQ", "soluble on expression in E. coli": "soluble"},
      {"sequence": "SGQLLPQGAYREVPQYWKQAAELINREGAHTRTLVLPAASFARQTWGWTRDEPLQPLLQVPWVVRDAVPLVPPETIRGLDGVLSVVDKGAVDHLGDQLRRIGVGIVVIRHDLVAPHSGDATLTLMRSEFPDIKVHTFGSGKERVDVAILDRQAHGYLTDKLTRVAGGGEALSLLGPGDFILSDSDAEIVTDTPMLAARNYGAARRAISAPLATEAEGKDVGNPVRDYPSAARATRVVERGGHVVASSSAADATAFGGADPTRSITAAVDNDPDTAWFAAPGDRHPWLELQAESPDPHLELRITGKAGKVIIRSNNAHVAADMRPGVPTTIRIPGGATNRVRIEVAPGMGIASAQLIHSPITRVPTLPPAGPSAHTFLFQKVMVDTGLLTRGFETARPIEVTLSASHCERTITIDQVTYACGERFLLPAGYHELSTRSDWVRLSGDGKAGFVDLNGDSVFVTTQAANRGMRAFIGDHELTPISVNAGGQGFIVPKALATDDVLDVIRFEFAGEHTYRR", "soluble on expression in E. coli": "not soluble"},
      {"sequence": "MFNSKPLLTITLLAVSSVASAAEQALDAQQVAQLIEKADSYRLQDDSSKVVSLVRLYQDQELDKTRLYHVYTRPNRESLVVFKSAVEAGQKMLMMGDNYWLQMPKSRRPIRITPMQKLLGEASIGDISTLTWSQDYQGEWKATETLTINGQSIAAYRLALTAKTKGASYQKIDLWLSEQDAFPIKADLYLRSGKLAKQAQYGRATNLGKDYVSEMTLLDSIQPSKKTVIEYQEIVPWQLDNKFYNPSYLPKANTSEL", "soluble on expression in E. coli": "not soluble"},
      {"sequence": "GPGSMFVSDNDDYLPEPQAPGDHHMHEERLRRLEENFALLLNQRSVGNASGPKESTPKARVTAVAADVQAADERSLKLTYELRELVPHLSPGFDCCSADALLLLSAIRNGSHGRGCESWEDRLAVVKAEKRSLHHQLEKKAQECEELKNAVAEMKQRLKAERQEALSSVNVLSQRREQVRKQLLLEESRSQKLQVRNGQLESELERLKDMLHSCMRR", "soluble on expression in E. coli": "not soluble"},
      {"sequence": "GPGSMVRRNNKSTESTIVFTRGAGDNSLWDDADLIRLWNAQLEEDQCEKAEDEAPVPSTVSEDGSLITTEDDEVAESEQKSSLRSFQSGQREAGVASAIVTAAPINASVAPVVLHQSMFDRLPADIRQLLVAYFNAGYEAGYFVGKRDGSSKVGGKRARGE", "soluble on expression in E. coli": "not soluble"},
      {"sequence": "GSLQDNSSYPDEPWRITEEQREYYVNQFRSLQPDPSSFISGSVAKNFFTKSKLSIPELSYIWELSDADCDGALTLPEFCAAFHLIVARKNGYPLPEGLPPTLQPEFIVTD", "soluble on expression in E. coli": "soluble"},
      {"sequence": "MGRFPSWVLVADWPAPPGVMVLSTLRGGPGVSVAPFDRLNLGNCSGVAGDAPVCVERNRSRLVEMLGLPSVPHWLRQVHGVEVLRVDALLQSIARVVEPTADAAVTSVVGAVLAILTADCLPVVLAAVDGSEIGVVHAGWRGLADDVLGRTVAALRTSPEYLQAWLGPAAGPQAYEVGVDVYAAFVERDSGAACAFSVTRPGHWYVDLYALARQRLMRAGLSAVSIYGGGLCTISDPQRFFSHRRDRRSGRFATLAWIGC", "soluble on expression in E. coli": "soluble"},
      {"sequence": "MAHHHHHHMFISEDLDPEALKNEANIKWKEVIGKGNMEEANIIWRQALKECIKYSMRGIPTNKNRDMQISLRLNLSLYHYKKKEYSDCINQCNIIIDNLLNLEEMLQYYNMGDEEENKKESNNNDGDKGDHISDDKGDHMSDDKGDHKDDDKGDHMSDDKGDHKDDDKGDHMSDDKGDHKDDDKGDHMSDDKDKSNVNLREKKYIIKKDILIKIFLRRASSFLCLQEFNKCNEDLGIIKKLENNDAEAATLEKRMIIEKKDYERKQKELYKKMCNSK", "soluble on expression in E. coli": "not soluble"},
      {"sequence": "MTLTAQKNSWWVGAHAGREYFNNTSEDMKKGWNTGVVLRYYFSDRIYSLATLNYGFASSLSPSGYFDELGNSPNARFRRHSILPAVGLGYEFFQGDFYSCYAQGGVGYGMEYNSVSYPQEYDVSVKRFGWLAELGGDYFLRDNLSLGISVAHLRVGWRNNWTANVKLSICLL", "soluble on expression in E. coli": "not soluble"}
    ]}
  ]
}
